From patent US20070189963A1 (EIDGENOSSISCHE TECHNISCHE HOCHSCHULE ZURICH, published 2007)

Assays:
hen egg lysozyme (hen) [1] = target: hen egg lysozyme (hen) (UniProt P00698); experiment: affinity chromatography of the Cy5 conjugate on an antigen column
hen egg lysozyme (hen) [2] = target: hen egg lysozyme (hen) (UniProt P00698); experiment: 125I-labeled scFv loaded on an antigen column, counting of flow-through and eluate
[3] = target: T1, recombinant ED-B domain of fibronectin (UniProt P02751 1266-1356, biotinylated (biotin disulfide N-hydroxysuccinimide ester) in ELISA and ECL competition; Cy5 at the N-terminal extremity in the band-shift assay); experiment: SPR (BIAcore)
T1 construct: domain: ED-B; Recombinant fragment as in Carnemolla et al. 1996; also called biotinylated ED-B; ED-B-biotin
Method: (§1) After loading, the column was washed with 50 ml of equilibration buffer (PBS, 1 mM EDTA, 0.5 M NaCl). Antibody fragments were then eluted with triethylamine 100 mM, immediately neutralised with 1M Hepes, pH 7, and dialysed against PBS, Affinity measurements by BlAcore were performed with purified antibodies as described (Neri et al. (1997). Nature Biotechnol., 15 1271-1275) [FIG. 4]. Band-shift analysis was performed as described (Neri et al. (1996). Nature Biotechnology, 14, 385-390), using recombinant ED-B fluorescently labeled at the N-terminal extremity (Carnemolla et al. (1996). lnt. J. Cancer, 68, 397-405, Neri et al. (1997). Nature Biotechnol., 15 1271-1275) with the infrared fluorophore Cy5 (Amersham) [FIG. 4]. […] We therefore peformed measurements of the kinetic dissociation constant koff by competition experiments (Neri et al. (1996), Trends in Biotechnol., 14, 465-470) [FIG. 4]. […] Streptavidin-coated dynabeads, diluted in Origen Assay Buffer (Deaver, D. R. (1995). Nature, 377, 758-760) were then added (20 μl, 1 mg/ml), and the resulting mixtures analysed with a ORIGEN Analyzer (IGEN Inc. Gaithersburg, Md. USA).

[4] = target: T1, recombinant ED-B domain of fibronectin; experiment: competition of scFv-(ED-B-biotin) complex with unbiotinylated ED-B, electrochemiluminescent detection (Origen)
Method: as §1, with “J. Cancer, 68, 397-405). After” for “After”, “USA). […]” for “USA).”

[5] = target: T1, recombinant ED-B domain of fibronectin; experiment: SPR (BIAcore), purified scFv
Method: as §1, with “Meth., 206, 171-182) and affinity purified onto a CNBr-activated sepharose column (Pharmacia, Uppsala, Sweden), which had been coupled with 10 mg of ED-B containing 7B89 recombinant protein (Carnemolla et al. (1996). lnt. J. Cancer, 68, 397-405). After” for “After”, “USA). […]” for “USA).”

[6] = target: T1, recombinant ED-B domain of fibronectin; experiment: Kd = koff/kon, koff from ECL competition, kon from BIAcore
Method: as §1, with “J. Cancer, 68, 397-405). After” for “After”, “USA). […]” for “USA).”

T1 sequence (P02751 1266-1356 limits assumed): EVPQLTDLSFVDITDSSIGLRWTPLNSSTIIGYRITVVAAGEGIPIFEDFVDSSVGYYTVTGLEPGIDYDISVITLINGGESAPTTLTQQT
hen egg lysozyme (hen), sequence (P00698 19-147): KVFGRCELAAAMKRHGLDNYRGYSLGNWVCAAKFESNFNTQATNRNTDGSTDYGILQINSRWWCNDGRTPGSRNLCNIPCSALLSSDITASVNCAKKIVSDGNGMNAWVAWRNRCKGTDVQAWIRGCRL

scFv(HyHEL-10)
immunoreactivity (hen egg lysozyme (hen) [1]): > 78%

scFv(D1.3)
immunoreactivity (hen egg lysozyme (hen) [2]): 80%

B1: scFv L19 (high-affinity anti-ED-B human scFv antibody fragment) (scFv)
scFv: EVQLLESGGGLVQPGGSLRLSCAASGFTFSSFSMSWVRQAPGKGLEWVSSISGSSGTTYYADSVKGRFTISRDNSKNTLYLQMNSLRAEDTAVYYCAKPFPYFDYWGQGTLVTVSSGDGSSGGSGGASTGEIVLTQSPGTLSLSPGERATLSCRASQSVSSSYLAWYQQKPGQAPRLLIYYASSRATGIPDRFSGSGSGTDFTLTISRLEPEDFAVYYCQQTGRIPPTFGQGTKVEIKDDDSDDDYKDDDDKHHHHHH
notes: T0005 (VH, linker, VL) is not labelled L19 itself; also called antibody L19
koff [3]: 9.6e-05 s⁻¹ | koff [4]: 6e-06 s⁻¹ | kon [5]: 110000 M⁻¹ s⁻¹ | Kd [6]: 54 pM
